Laboratory results published in patent US8796209B2, “Compositions and methods related to anti-FGF agents” (The Regents of the University of California, priority 2005, dated 2014).

Assays:
[1] = biological target: T1, integrin αvβ3 (Homo sapiens, UniProt P05106+P06756); assay: Soluble integrin binding assay (ELISA-type), soluble αvβ3 on immobilized FGF; conditions: coated at 10 μg/ml; soluble αvβ3 5 μg/ml, 1 mM MnCl2
T1 construct: using the soluble αv and β3 expression constructs provided by Tim Springer; made in house; host or cells: CHO K1
Method: Wells of 96-well microtiter plates were coated with 10 μg/ml FGF-1 or FGF-2 and remaining protein binding sites were blocked with 1 mg/ml BSA. Recombinant soluble αvβ3 (50 μl/well at 5 μg/ml in Hepes-Tyrode buffer supplemented with 1 mM MnCl2) was added to wells and incubated for 1 h at room temperature. Soluble αvβ3 was incubated with 10 μg/ml 7E3 (white bar) or mouse IgG (black bar) for 10 min on ice prior to adding to the wells. BSA (circle) was used as a negative control. Data is shown as means+/−SD of triplicate experiments.
FGF-1 (10 μg/m) was heat-treated at indicated temperature for 10 min prior to immobilization. Binding of soluble αvβ3 was determined as described in FIG. 1. Data is shown as percent binding+/−SD of triplicate experiments.
Amino acid residues in the integrin-binding site or in the FGFR-binding site were mutated individually or in groups. Wild-type (diamond), R50E (open square), N33A (closed square), 4xE (circle), 3xA (triangle) were coated to a plastic plate various concentration as indicated and the binding of soluble αvβ3 was determined as described in FIG. 2. BSA (cross) was used as a negative control. […] “4xE” represents the K127E/K128E/K133E/R134E mutant. “3xA” represents the E102A/Y109A/Q110A mutant.
Binding assays were performed as previously described (Takagi et al., 2001). Native or heat-denatured FGF-1 in 0.1 M carbonate buffer, pH 9.4, were incubated in a polystyrene 96-well non-tissue culture plates surface overnight at 4° C. Unbound FGF-1 was removed, and 200 μl of 0.1% bovine serum albumin in PBS was added and incubated for 60 min at room temperature. The wells were washed with PBS and soluble integrin αvβ3 in 50 μl in Hepes-Tyrode buffer supplemented with 1 mM Mn^2+ were added to the wells and incubated at room temperature for 60 min. After non-bound soluble integrin were removed by rinsing the wells with the same buffer. Horseradish peroxidase (HRP) conjugated anti His-tag mouse IgG was added to well and incubated 60 min. Non-bound antibodies were removed by rinsing the wells with the same buffer, bound integrins were quantified by measuring the absorbance of 450 nm developed from adding the substrate (3,3′,5,5′-tetramethylbenzidine) of HRP unbound protein was aspirated, and the wells were washed with PBS three times.

[2] = system: ERK1/2; assay: MAP kinase (ERK1/2) activation, western blot; format: cell-based, mouse; conditions: 5 μg/ml heparin
Method: Serum starved Balb3T3 cells were stimulated with wild-type and mutant FGF-1s (5 ng/ml) in the presence or absence of 5 μg/ml heparin for 10 min at 37° C. Cell lysates were analyzed by western blotting with anti-phospho ERK1/2 (anti phospho-ERK). Total amount of ERK1/2 in each lane was determined by blotting with anti-ERK1/2. Controls contain medium alone (none) or medium containing 10% fetal calf serum (FCS).
Balb3T3 cells were grown to confluence and serum starved in DMEM supplemented with 0.4% fetal calf serum for 24 h, and stimulated with wild type and mutant FGF-1 (5 ng/ml) in the presence or absence of 5 μg/ml heparin for 10 min at 37° C. Cells were washed twice with ice-cold PBS and lysed with the lysis buffer (20 mM Tris-HCI pH 8.0, 120 mM NaCl, 5 mM EDTA, 0.5% Triton-X100, 1 mM PMSF, 1 mM DTT, 10 mM NaF, 1 mM Na3VO4, 10 μg/ml aprotinin). Cell lysates were separated on 4-12% NuPAGE Bis-Tris Gel (invitrogen). Proteins were then transferred to PVDF membranes (Milli-pore), probed with antibodies, and bound antibodies were detected by HRP-conjugated anti-mouse IgG and chemiluminescence HRP substrate (Pierce). The antibodies used were anti-phospho-ERK1/2, anti-ERK1/2 (Cell Signaling Technology).

[3] = biological target: T2, FGF-1-αvβ3 interaction (Homo sapiens, UniProt P05106+P06756); assay: Inhibition of FGF-1-αvβ3 interaction by γC; format: binding; conditions: immobilized FGF-1 10 μg/ml, increasing concentrations of soluble γC
T2 construct: using the soluble αv and β3 expression constructs provided by Tim Springer; made in house; host or cells: CHO K1 (integrin); E. coli BL21 (DE3) (FGF-1)
Method: FGF-1 (10 μg/m) was immobilized to the plastic plate. Soluble αvβ3 was added to the wells together with increasing concentrations of soluble γC. Binding was determined as described in A. Data is shown as percent binding+/−SD of triplicate experiments with no addition of γC as 100.
FGF-1 (10 μg/ml) was immobilized to wells of 96-well plates. Soluble αvβ3 integrin was added to the wells with various concentration of γC. Bound integrin was detected by using HRP-conjugated anti-6His antibodies and its substrate as described above.

T1 sequence (P06756 31-992 limits assumed): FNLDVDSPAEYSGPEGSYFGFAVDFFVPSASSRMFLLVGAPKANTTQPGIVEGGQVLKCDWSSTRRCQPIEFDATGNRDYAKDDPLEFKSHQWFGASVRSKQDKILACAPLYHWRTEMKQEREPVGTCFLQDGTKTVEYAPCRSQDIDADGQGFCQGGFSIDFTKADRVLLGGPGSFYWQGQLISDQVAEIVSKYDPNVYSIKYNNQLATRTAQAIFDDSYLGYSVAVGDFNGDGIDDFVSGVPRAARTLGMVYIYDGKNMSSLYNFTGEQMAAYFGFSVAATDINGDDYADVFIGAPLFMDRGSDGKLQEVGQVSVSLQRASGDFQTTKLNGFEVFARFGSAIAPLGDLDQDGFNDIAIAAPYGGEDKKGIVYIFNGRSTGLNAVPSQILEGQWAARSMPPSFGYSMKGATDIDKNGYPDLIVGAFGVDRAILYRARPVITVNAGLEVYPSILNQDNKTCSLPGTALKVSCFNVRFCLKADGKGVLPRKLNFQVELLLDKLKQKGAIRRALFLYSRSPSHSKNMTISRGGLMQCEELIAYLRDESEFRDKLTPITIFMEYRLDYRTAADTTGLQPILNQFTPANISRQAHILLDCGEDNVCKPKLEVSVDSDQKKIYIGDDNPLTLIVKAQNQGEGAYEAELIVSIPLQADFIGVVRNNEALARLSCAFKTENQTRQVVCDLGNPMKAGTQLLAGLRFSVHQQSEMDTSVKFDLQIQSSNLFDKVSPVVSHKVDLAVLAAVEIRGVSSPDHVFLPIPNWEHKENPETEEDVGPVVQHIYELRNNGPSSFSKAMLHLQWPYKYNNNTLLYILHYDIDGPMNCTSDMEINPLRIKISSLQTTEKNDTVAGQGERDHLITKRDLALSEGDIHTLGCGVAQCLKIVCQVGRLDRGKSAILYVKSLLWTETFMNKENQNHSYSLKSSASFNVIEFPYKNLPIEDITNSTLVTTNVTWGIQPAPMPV
T1 sequence (P05106 27-718 limits assumed): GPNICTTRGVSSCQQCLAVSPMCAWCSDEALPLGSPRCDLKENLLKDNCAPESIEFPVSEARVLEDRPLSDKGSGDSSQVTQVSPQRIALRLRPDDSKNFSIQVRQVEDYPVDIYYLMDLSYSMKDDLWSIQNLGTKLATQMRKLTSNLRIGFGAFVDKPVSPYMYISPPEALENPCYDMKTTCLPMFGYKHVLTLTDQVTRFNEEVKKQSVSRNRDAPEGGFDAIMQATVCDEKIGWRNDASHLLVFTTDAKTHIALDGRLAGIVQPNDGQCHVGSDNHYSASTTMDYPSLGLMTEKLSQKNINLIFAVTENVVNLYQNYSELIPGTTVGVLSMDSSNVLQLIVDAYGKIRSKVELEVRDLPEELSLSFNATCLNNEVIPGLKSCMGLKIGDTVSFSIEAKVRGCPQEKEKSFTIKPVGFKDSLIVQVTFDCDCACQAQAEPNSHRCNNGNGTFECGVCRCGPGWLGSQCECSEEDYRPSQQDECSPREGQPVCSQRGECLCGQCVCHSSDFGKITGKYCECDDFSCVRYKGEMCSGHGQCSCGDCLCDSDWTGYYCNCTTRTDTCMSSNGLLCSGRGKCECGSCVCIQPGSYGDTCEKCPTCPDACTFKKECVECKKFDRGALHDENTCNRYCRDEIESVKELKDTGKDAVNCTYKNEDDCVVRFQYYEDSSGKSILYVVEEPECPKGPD
T2 sequence (P06756 31-992 limits assumed): as the sequence (P06756 31-992 limits assumed) above
T2 sequence (P05106 27-718 limits assumed): as the sequence (P05106 27-718 limits assumed) above

FGF-2: basic FGF, used as a positive control for αvβ3 binding
binding of soluble αvβ3 to the immobilized protein [1]: bound

heparin [reference compound]
effect of heparin on FGF-1-induced ERK1/2 activation [2]: did not enhance

B1: γC: globular carboxyl-terminal domain of the fibrinogen γ-chain, a known ligand for αvβ3 (protein)
chain: KDCQDIANKGAKQSGLYFIKPLKANQQFLVYCEIDGSGNGWTVFQKRLDGSVDFKKNWIQYKEGFGHLSPTGTTEFWLGNEKIHLISTQSAIPYALRVELEDWNGRTSTADYAMFKVGPEADKYRLTYAYFAGGDAGDAFDGFDFGDDPSDKFFTSHNGMQFSTWDNDNDKFEGNCAEQDGSGWWMNKCHAGHLNGVYYQGGTYSKASTPNGYDNGIIWATWKTRWYSMKKTTMKIIPFNRLTIGEGQQHHLGGAKQAGDV
blocking of FGF-1-αvβ3 interaction [3]: effectively block
